Legend:
[1] = target: the molecule itself; test: negative stain EM single-particle reconstruction; partially fractionated late stationary phase Msm lysate (anion exchange or sucrose cushion, >100 kDa cut-off), 2% uranyl acetate, Relion 3.1; symmetry imposed from 2D classes; C3 symmetry for encapsulin with cargo
[2] = target: T1, Msm encapsulin (MSMEG_5830) (M. smegmatis (endogenous in Msm groELΔC), UniProt A0R4H0 1-265); test: as above; conditions: partners not purified
T1 construct: encapsulin of Mycobacterium smegmatis, locus MSMEG_5830; Reconstructed with icosahedral symmetry; also called complex 001; encapsulin nanocompartment; source: endogenous, M. smegmatis groELΔC late stationary phase lysate, partially fractionated (anion exchange, >100 kDa cut-off; gel filtration); also solubilised membrane fraction
T1 sequence (looked up): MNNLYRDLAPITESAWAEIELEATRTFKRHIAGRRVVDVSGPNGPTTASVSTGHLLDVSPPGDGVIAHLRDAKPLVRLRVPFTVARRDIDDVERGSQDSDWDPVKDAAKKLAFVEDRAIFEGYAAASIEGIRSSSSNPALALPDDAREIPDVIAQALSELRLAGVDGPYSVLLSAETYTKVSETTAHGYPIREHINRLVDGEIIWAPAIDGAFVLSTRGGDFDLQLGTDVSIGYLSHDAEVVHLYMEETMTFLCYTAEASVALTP

B1: Msm dye-decolourising type peroxidase (MSMEG_5829) (enzyme, M. smegmatis (endogenous in Msm groELΔC), UniProt A0R4G9 1-343, looked up)
chain: MPAPQPQPVLAPLTPAAVFLVATIDEGQEATVYDALPDISGLVRAIGFRDPAKRLSAITSIGSDAWDRLFSGPRPAELHPFREIDGGRHHAPATPGDLLFHLRAESMDVCFELATKLVEAMSGAITIVDETHGFRFFDNRDLMGFVDGTENPDGNLAVVATQIGDEDPDFAGGCYVHVQKYLHDMASWNSLSVEEQERVIGRTKLDDIELDDDVKPANSHVALNVIEDEDGNELKIIRHNMPFGEIGKGEFGTYYIGYSRTPSVTERMLDNMFIGDPPGNTDRILDFSTAITGGLFFTPTVDFLDDPPPLPSEDDRAEPASAPSADPVHTDGSLGIGSLKGTR
notes: dye-decolourising type peroxidase of Mycobacterium smegmatis, locus MSMEG_5829; Interpreted as a D3 hexamer from the cargo density in the C3 map; also called DyP; DyP type peroxidase; source: endogenous, M. smegmatis groELΔC late stationary phase lysate, partially fractionated, enclosed in encapsulin; also solubilised membrane fraction
- stoichiometry N [1]: 6 subunits
- stoichiometry N [2]: 10 encapsulin subunits per DyP subunit
